Measurements reported in US20080119430.

Molecular target: Rho (active Rho-GTP, endogenous in HUVECs)

Row | Protein | fold increase in Rho activity (active Rho-GTP) in HUVECs after BNO69 knockdown with BNO69R, compared to empty vector | fold increase in Rho activity in HUVECs expressing the R82A mutant, compared to empty vector
1 | BNO69 (endogenous protein in HUVECs, knocked down by adenoviral antisense BNO69R) (protein) MPEDRNSGGCPAGALASTPFIPKTTYRRIKRCFSFRKGIFGQKLEDTVRYEKRYGNRLAPMLVEQCVDFIRQRGLKEEGLFRLPGQANLVKELQDAFDCGEKPSFDSNTDVHTVASLLKLYLRELPEPVIPYAKYEDFLSCAKLLSKEEEAGVKELAKQVKSLPVVNYNLLKYICRFLDEVQSYSGVNKMSVQNLATVFGPNILRPKVEDPLTIMEGTVVVQQLMSVMISKHDCLFPKDAELQSKPQDGVSNNNEIQKKATMGLLQNKENNNTKDSPSRQCSWDKSESPQRSSMNNGSPTALSGSKTNSPKNSVHKLDVSRSPPLMVKKNPAFNKGSGIVTNGSFSSSNAEGLEKTQTTPNGSLQARRSSSLKVSGTKMGTHSVQNGTVRMGILNSDTLGNPTNVRNMSWLPNGYVTLRDNKQKEQAGELGQHNRLSTYDNVHQQFSMMNLDDKQSIDSATWSTSSCEISLPENSNSCRSSTTTCPEQDFFGGNFEDPVLDGPPQDDLSHPRDYESKSDHRSVGGRSSRATSSSDNSETFVGNSSSNHSALHSLVSSLKQEMTKQKIEYESRIKSLEQRNLTLETEMMSLHDELDQERKKFTMIEIKMRNAERAKEDAEKRNDMLQKEMEQFFSTFGELTVEPRRTERGNTIWIQ | 3.1±0.5 fold increase in Rho activity with BNO69R | –
2 | BNO69 mutant (R82A) (protein) MPEDRNSGGCPAGALASTPFIPKTTYRRIKRCFSFRKGIFGQKLEDTVRYEKRYGNRLAPMLVEQCVDFIRQRGLKEEGLFALPGQANLVKELQDAFDCGEKPSFDSNTDVHTVASLLKLYLRELPEPVIPYAKYEDFLSCAKLLSKEEEAGVKELAKQVKSLPVVNYNLLKYICRFLDEVQSYSGVNKMSVQNLATVFGPNILRPKVEDPLTIMEGTVVVQQLMSVMISKHDCLFPKDAELQSKPQDGVSNNNEIQKKATMGLLQNKENNNTKDSPSRQCSWDKSESPQRSSMNNGSPTALSGSKTNSPKNSVHKLDVSRSPPLMVKKNPAFNKGSGIVTNGSFSSSNAEGLEKTQTTPNGSLQARRSSSLKVSGTKMGTHSVQNGTVRMGILNSDTLGNPTNVRNMSWLPNGYVTLRDNKQKEQAGELGQHNRLSTYDNVHQQFSMMNLDDKQSIDSATWSTSSCEISLPENSNSCRSSTTTCPEQDFFGGNFEDPVLDGPPQDDLSHPRDYESKSDHRSVGGRSSRATSSSDNSETFVGNSSSNHSALHSLVSSLKQEMTKQKIEYESRIKSLEQRNLTLETEMMSLHDELDQERKKFTMIEIKMRNAERAKEDAEKRNDMLQKEMEQFFSTFGELTVEPRRTERGNTIWIQ | – | 2.6±0.7 fold increase (n=4 experiments) in Rho activity
